Results taken from patent publication CN108264566A (SHANGHAI XINBAINUO BIOTECHNOLOGY CO LTD, dated 2018).

Tests used:
CD3-GITRL BsM_D = molecular target: T1, CD3-GITRL BsM_D; assay: ELISA, plate coated with 1 μg/ml GITR-hFc, binder titrated from 10 μg/ml
T1 construct: Glycosylated, disulfide-linked homodimer through the IgD hinge linker; made in CHO-S cells; also called 二聚体形式的抗CD3/GITRL双特异性分子

CD3-GITRL BsM_M = molecular target: T2, CD3-GITRL BsM_M; assay: as above
T2 construct: made in CHO-S cells; also called 单体形式的抗CD3/GITRL双特异性分子

CD3-B7RP-1BsM_M = molecular target: T3, CD3-B7RP-1BsM_M; assay: ELISA, plate coated with 1 μg/ml ICOS-hFc, binder titrated from 10 μg/ml
T3 construct: made in CHO-S cells; also called 单体形式的抗CD3/B7RP-1双特异性分子

CD3-B7RP-1BsM_D = molecular target: T4, CD3-B7RP-1BsM_D; assay: as above
T4 construct: Glycosylated, disulfide-linked homodimer through the IgD hinge linker; made in CHO-S cells; also called 二聚体形式的抗CD3/B7RP-1双特异性分子

CD3-OX40L BsM_M = molecular target: T5, CD3-OX40L BsM_M; assay: ELISA, plate coated with 1 μg/ml OX40-hFc, binder titrated from 10 μg/ml
T5 construct: made in CHO-S cells; also called 单体形式的抗CD3/OX40L双特异性分子

CD3-OX40L BsM_D = molecular target: T6, CD3-OX40L BsM_D; assay: as above
T6 construct: Glycosylated, disulfide-linked homodimer through the IgD hinge linker; made in CHO-S cells; also called 二聚体形式的抗CD3/OX40L双特异性分子

CD3-CD70BsM_D = molecular target: T7, CD3-CD70BsM_D; assay: ELISA, plate coated with 1 μg/ml CD27-hFc, binder titrated from 10 μg/ml
T7 construct: Glycosylated, disulfide-linked homodimer through the IgD hinge linker; made in CHO-S cells; also called 二聚体形式的抗CD3/CD70双特异性分子

CD3-CD70BsM_M = molecular target: T8, CD3-CD70BsM_M; assay: as above
T8 construct: made in CHO-S cells; also called 单体形式的抗CD3/CD70双特异性分子

B1: 人类GITR-hFc融合蛋白 (Fc fusion)
chain: QRPTGGPGCGPGRLLLGTGTDARCCRVHTTRCCRDYPGEECCSEWDCMCVQPEFHCGDPCCTTCRHHPCPPGQGVQSQGKFSFGFQCIDCASGTFSGGHEGHCKPWTDCTQFGFLTVFPGNKTHNAVCVPGSPPAEP
notes: Bought fusion protein; also called 重组蛋白GITR-hFc; not shown: human Fc (hFc) of the bought fusion protein
binding result (CD3-GITRL BsM_D): binds
binding result (CD3-GITRL BsM_M): binds

B2: 人类ICOS-hFc融合蛋白 (Fc fusion)
chain: EINGSANYEMFIFHNGGVQILCKYPDIVQQFKMQLLKGGQILCDLTKTKGSGNTVSIKSLKFCHSQLSNNSVSFFLYNLDHSHANYYFCNLSIFDPPPFKVTLTGGYLHIYESQLCCQLK
notes: Bought fusion protein; also called 重组蛋白ICOS-hFc; not shown: human Fc (hFc) of the bought fusion protein
binding result (CD3-B7RP-1BsM_M): binds
binding result (CD3-B7RP-1BsM_D): binds

B3: 人类OX40-hFc融合蛋白 (Fc fusion)
chain: LHCVGDTYPSNDRCCHECRPGNGMVSRCSRSQNTVCRPCGPGFYNDVVSSKPCKPCTWCNLRSGSERKQLCTATQDTVCRCRAGTQPLDSYKPGVDCAPCPPGHFSPGDNQACKPWTNCTLAGKHTLQPASNSSDAICEDRDPPATQPQETQGPPARPITVQPTEAWPRTSQGPSTRPVEVPGGRA
notes: Bought fusion protein; also called 重组蛋白OX40-hFc; not shown: human Fc (hFc) of the bought fusion protein
binding result (CD3-OX40L BsM_M): binds
binding result (CD3-OX40L BsM_D): binds

B4: 人类CD27-hFc融合蛋白 (Fc fusion)
chain: ATPAPKSCPERHYWAQGKLCCQMCEPGTFLVKDCDQHRKAAQCDPCIPGVSFSPDHHTRPHCESCRHCNSGLLVRNCTITANAECACRNGWQCRDKECTECDPLPNPSLTARSSQALSPHPQPTHLPYVSEMLEARTAGHMQTLADFRQLPARTLSTHWPPQRSLCSSDFIR
notes: Bought fusion protein; also called 重组蛋白CD27-hFc; not shown: human Fc (hFc) of the bought fusion protein
binding result (CD3-CD70BsM_D): binds
binding result (CD3-CD70BsM_M): binds
